Paper PMC11098114 (Proceedings of the National Academy of Sciences of the …, 2024)

Target: the molecule itself
Assay: SEC

B1: 3×Ala-MxEnc (natural protein, Myxococcus xanthus)
chain: MPDFLGHAENPLREEEWARLNETVIQVARRSLVGRRILDIYGPLGAGVQTVPYDEFQGVSPGAVDIVGEQETAMVFTDARKFKTIPIIYKDFLLHWRDIEAARTHNMPLDVSAAAGAAALCAQQEDELIFYGDARLGYEGLMTANGRLTVPLGDWTSPGGGFQAIVEATRKLNEQGHFGPYAVVLSPRLYSQLHRIYEAAAVLEIETIRQLASDGVYQSNRLRGESGVVVSTGRENMDLAVSMDMVAAYLGASRMNHPFRVLEALLLRIKHPDAICTLEGAGATERR
binding result: binds

B2: 3×Asp-MxEnc (natural protein, Myxococcus xanthus)
chain: MPDFLGHAENPLREEEWARLNETVIQVARRSLVGRRILDIYGPLGAGVQTVPYDEFQGVSPGAVDIVGEQETAMVFTDARKFKTIPIIYKDFLLHWRDIEAARTHNMPLDVSAAAGAAALCAQQEDELIFYGDARLGYEGLMTANGRLTVPLGDWTSPGGGFQAIVEATRKLNEQGHFGPYAVVLSPRLYSQLHRIYEDDDVLEIETIRQLASDGVYQSNRLRGESGVVVSTGRENMDLAVSMDMVAAYLGASRMNHPFRVLEALLLRIKHPDAICTLEGAGATERR
binding result: binds
